Here are results for two molecules from paper PMC9242855, “Mechanism of replication origin melting nucleated by CMG helicase assembly” (Nature, 2022).

Assay in all cases: cryo-EM structure; dCMGE assembled from purified yeast proteins on nucleosome-flanked (chromatinized) ARS1 origin DNA with 5 mM ATP; undiluted CMG assembly reaction frozen on grids; dimer map at limited resolution, symmetry-expanded CMGE at 3.5 Å
Data set [1] concerns the molecule itself.
Another data set concerns the target T1, Mcm3 (S. cerevisiae, UniProt P24279 1-971).
T1 construct: Mcm3, subunit of the yeast MCM (Mcm2–7) helicase; Subunit seen within the dCMGE structure; source: purified within Mcm2–7–Cdt1 on the basis of previously established protocols
The settings on record: both partners purified.

The next data set deals with T2, Mcm4 (S. cerevisiae, UniProt P30665 1-933).
T2 construct: Mcm4, subunit of the yeast MCM (Mcm2–7) helicase; Subunit seen within the dCMGE structure; source: purified within Mcm2–7–Cdt1 on the basis of previously established protocols
T2 sequence: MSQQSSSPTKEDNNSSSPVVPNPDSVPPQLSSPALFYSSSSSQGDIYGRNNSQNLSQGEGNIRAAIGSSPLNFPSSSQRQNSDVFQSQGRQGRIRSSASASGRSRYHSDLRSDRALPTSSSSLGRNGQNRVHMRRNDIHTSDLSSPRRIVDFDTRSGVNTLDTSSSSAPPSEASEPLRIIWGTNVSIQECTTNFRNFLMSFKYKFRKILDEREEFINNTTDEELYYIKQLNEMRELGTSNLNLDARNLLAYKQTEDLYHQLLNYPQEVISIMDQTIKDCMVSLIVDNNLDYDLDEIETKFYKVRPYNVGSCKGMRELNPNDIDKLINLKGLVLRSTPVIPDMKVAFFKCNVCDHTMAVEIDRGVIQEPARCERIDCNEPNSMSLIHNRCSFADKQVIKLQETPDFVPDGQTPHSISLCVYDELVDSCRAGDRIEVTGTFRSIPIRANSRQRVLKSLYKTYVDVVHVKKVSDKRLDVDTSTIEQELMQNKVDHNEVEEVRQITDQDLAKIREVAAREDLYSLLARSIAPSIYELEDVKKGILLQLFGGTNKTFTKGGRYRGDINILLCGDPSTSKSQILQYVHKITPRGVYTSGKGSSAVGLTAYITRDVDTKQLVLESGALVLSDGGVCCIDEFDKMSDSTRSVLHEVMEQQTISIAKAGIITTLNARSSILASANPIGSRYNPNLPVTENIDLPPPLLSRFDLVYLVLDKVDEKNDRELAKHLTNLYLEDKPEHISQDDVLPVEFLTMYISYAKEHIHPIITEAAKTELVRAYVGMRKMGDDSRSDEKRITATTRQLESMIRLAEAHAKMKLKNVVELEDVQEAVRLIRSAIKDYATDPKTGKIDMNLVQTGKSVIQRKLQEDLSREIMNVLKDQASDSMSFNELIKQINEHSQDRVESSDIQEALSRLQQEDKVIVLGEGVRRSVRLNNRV
To be noted: both partners purified.

T1 sequence (P24279 whole entry): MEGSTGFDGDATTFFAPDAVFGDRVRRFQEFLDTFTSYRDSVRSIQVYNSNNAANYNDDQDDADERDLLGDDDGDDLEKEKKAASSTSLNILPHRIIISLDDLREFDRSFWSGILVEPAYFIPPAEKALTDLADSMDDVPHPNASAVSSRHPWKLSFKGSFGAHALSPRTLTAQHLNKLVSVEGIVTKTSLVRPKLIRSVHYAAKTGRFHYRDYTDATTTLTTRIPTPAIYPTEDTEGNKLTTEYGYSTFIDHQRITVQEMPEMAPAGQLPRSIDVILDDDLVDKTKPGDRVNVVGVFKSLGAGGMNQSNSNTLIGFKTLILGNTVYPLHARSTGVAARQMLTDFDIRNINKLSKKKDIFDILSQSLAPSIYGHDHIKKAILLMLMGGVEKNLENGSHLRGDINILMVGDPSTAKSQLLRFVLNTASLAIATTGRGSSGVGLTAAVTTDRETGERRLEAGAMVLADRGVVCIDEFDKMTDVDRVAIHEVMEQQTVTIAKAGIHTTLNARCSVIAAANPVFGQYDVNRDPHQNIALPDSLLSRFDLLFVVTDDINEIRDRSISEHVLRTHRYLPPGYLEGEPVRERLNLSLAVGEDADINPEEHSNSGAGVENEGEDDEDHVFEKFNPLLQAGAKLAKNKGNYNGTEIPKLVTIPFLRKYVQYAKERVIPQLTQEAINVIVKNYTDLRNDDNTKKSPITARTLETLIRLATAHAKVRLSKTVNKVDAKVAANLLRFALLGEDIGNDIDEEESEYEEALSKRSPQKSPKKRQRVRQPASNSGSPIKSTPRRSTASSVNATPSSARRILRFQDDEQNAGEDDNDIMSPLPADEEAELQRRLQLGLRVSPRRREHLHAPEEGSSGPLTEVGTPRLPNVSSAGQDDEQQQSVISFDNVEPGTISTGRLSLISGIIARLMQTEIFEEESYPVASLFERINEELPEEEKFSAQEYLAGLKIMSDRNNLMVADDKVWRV

B1: Mcm6 (natural protein, S. cerevisiae)
chain: MSSPFPADTPSSNRPSNSSPPPSSIGAGFGSSSGLDSQIGSRLHFPSSSQPHVSNSQTGPFVNDSTQFSSQRLQTDGSATNDMEGNEPARSFKSRALNHVKKVDDVTGEKVREAFEQFLEDFSVQSTDTGEVEKVYRAQIEFMKIYDLNTIYIDYQHLSMRENGALAMAISEQYYRFLPFLQKGLRRVVRKYAPELLNTSDSLKRSEGDEGQADEDEQQDDDMNGSSLPRDSGSSAAPGNGTSAMATRSITTSTSPEQTERVFQISFFNLPTVHRIRDIRSEKIGSLLSISGTVTRTSEVRPELYKASFTCDMCRAIVDNVEQSFKYTEPTFCPNPSCENRAFWTLNVTRSRFLDWQKVRIQENANEIPTGSMPRTLDVILRGDSVERAKPGDRCKFTGVEIVVPDVTQLGLPGVKPSSTLDTRGISKTTEGLNSGVTGLRSLGVRDLTYKISFLACHVISIGSNIGASSPDANSNNRETELQMAANLQANNVYQDNERDQEVFLNSLSSDEINELKEMVKDEHIYDKLVRSIAPAVFGHEAVKKGILLQMLGGVHKSTVEGIKLRGDINICVVGDPSTSKSQFLKYVVGFAPRSVYTSGKASSAAGLTAAVVRDEEGGDYTIEAGALMLADNGICCIDEFDKMDISDQVAIHEAMEQQTISIAKAGIHATLNARTSILAAANPVGGRYNRKLSLRGNLNMTAPIMSRFDLFFVILDDCNEKIDTELASHIVDLHMKRDEAIEPPFSAEQLRRYIKYARTFKPILTKEARSYLVEKYKELRKDDAQGFSRSSYRITVRQLESMIRLSEAIARANCVDEITPSFIAEAYDLLRQSIIRVDVDDVEMDEEFDNIESQSHAASGNNDDNDDGTGSGVITSEPPADIEEGQSEATARPGTSEKKKTTVTYDKYVSMMNMIVRKIAEVDREGAEELTAVDIVDWYLLQKENDLGSLAEYWEERRLAFKVIKRLVKDRILMEIHGTRHNLRDLENEENENNKTVYVIHPNCEVLDQLEPQDSS
notes: Mcm6, subunit of the yeast MCM (Mcm2–7) helicase; Subunit seen within the dCMGE structure; source: purified within Mcm2–7–Cdt1 on the basis of previously established protocols
For B1, the binding result in data set [1] is given as “binds”.

B2: Mcm7 (natural protein, S. cerevisiae)
chain: MSAALPSIQLPVDYNNLFNEITDFLVTFKQDTLSSDATRNENEDENLDAENIEQHLLEKGPKYMAMLQKVANRELNSVIIDLDDILQYQNEKFLQGTQADDLVSAIQQNANHFTELFCRAIDNNMPLPTKEIDYKDDVLDVILNQRRLRNERMLSDRTNEIRSENLMDTTMDPPSSMNDALREVVEDETELFPPNLTRRYFLYFKPLSQNCARRYRKKAISSKPLSVRQIKGDFLGQLITVRGIITRVSDVKPAVEVIAYTCDQCGYEVFQEVNSRTFTPLSECTSEECSQNQTKGQLFMSTRASKFSAFQECKIQELSQQVPVGHIPRSLNIHVNGTLVRSLSPGDIVDVTGIFLPAPYTGFKALKAGLLTETYLEAQFVRQHKKKFASFSLTSDVEERVMELITSGDVYNRLAKSIAPEIYGNLDVKKALLLLLVGGVDKRVGDGMKIRGDINVCLMGDPGVAKSQLLKAICKISPRGVYTTGKGSSGVGLTAAVMKDPVTDEMILEGGALVLADNGICCIDEFDKMDESDRTAIHEVMEQQTISISKAGINTTLNARTSILAAANPLYGRYNPRLSPLDNINLPAALLSRFDILFLMLDIPSRDDDEKLAEHVTYVHMHNKQPDLDFTPVEPSKMREYIAYAKTKRPVMSEAVNDYVVQAYIRLRQDSKREMDSKFSFGQATPRTLLGIIRLSQALAKLRLADMVDIDDVEEALRLVRVSKESLYQETNKSKEDESPTTKIFTIIKKMLQETGKNTLSYENIVKTVRLRGFTMLQLSNCIQEYSYLNVWHLINEGNTLKFVDDGTMDTDQEDSLVSTPKLAPQTTASANVSAQDSDIDLQDA
notes: Mcm7, subunit of the yeast MCM (Mcm2–7) helicase; Subunit seen within the dCMGE structure; source: purified within Mcm2–7–Cdt1 on the basis of previously established protocols
Turning to B2, the binding result in the data set with Mcm3 and with Mcm4 was “binds” in each case.
